# How the values were obtained:
# [1] = biological target: bovine brain farnesyl-protein transferase (bovine) (UniProt P29702)
# [2] = biological target: human farnesyl-protein transferase, recombinant, expressed in E. coli from pRD516 with a C-terminal Glu-Glu-Phe epitope tag on the β subunit (human)
"IC50 value (nM), inhibition of farnesylation of Ras protein [1] [nM]","IC50 value (nM), inhibition of farnesylation of Ras protein [2] [nM]",Substance
20000,6200,tetrapeptide CVIL (cysteinylvalinyl-isolleucinyl-leucine)
10,17,tetrapeptide CIFM (cysteinylisolleucinyl-phenylalaninyl-methionine)
100,100,tetrapeptide CVIM (cysteinylvalinyl-isolleucinyl-methionine)
